According to PMC5004352:

Molecular target: SoPIP2;1 wild type (Spinacia oleracea)
Test: SDS-PAGE (SDS-resistant oligomers); purified protein mixed with SDS sample loading buffer (125 mM Tris-HCl pH 6.8, 20% glycerol, 4% SDS), 10 min at room temperature, 12% gel, Coomassie; WT also pre-incubated with DTT or β-mercaptoethanol for varying times; WT against mutants with 10% β-mercaptoethanol in the loading buffer; monomer to dimer

- stoichiometry N: 2
Substance: SoPIP2;1 wild type (natural protein)
